This is an account of results in the nanobody polyreactivity screen of Harvey et al. (2022).

The nature of the data set: yeast display, Sf9 membrane polyspecificity reagent, FACS + sequencing; frameworks hold sequencing errors. The gist of the method:
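In a synthetic yeast display library (Saccharomyces cerevisiae BJ5465), nanobody expression was induced with galactose for 36–48 hours. FACS gates were set low and high (top ~1%) using anti-HA fluorescence for expression and streptavidin fluorescence for binding of the Sf9 membrane reagent. Each polyreactivity label is drawn from the gate of origin.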
As to “QVQLVESGGGLVQAGGSLRISCAASGSTSLYYAMGWYSQAPGKEREFVAANTWSGGSTYYADSVKGRFTISRDNAKNSVYLQMNSLQPVDTAVDYWAARSYGYSAGYYWRQGTQVTVSS”, the “polyreactivity (PSR sort gate)” value is “high polyreactivity”. In the case of “QVQLVESGGGLVQAGGSLRLSCAASGSTFPYNAMGWYRQAPGKEWELVAAISQSGGSTYYADSVKGRFTISRDNAKNTVYLQMNSLKPEDTAVYYCATDQSLLAHYDYWGQGTQVTVSS”, the “polyreactivity (PSR sort gate)” value is “low polyreactivity”. Take “QVQLVESGGGLVQAGGSLRLSCAASGRIFGPYTMGWYRQAPGKERELVAAISSTGGSTYYADSVKGRFTISRDNAKNTVYLQRNSLKPEDTAVYYCEYDYWGQGTQVTVSS”: the “polyreactivity (PSR sort gate)” value is on record as “low polyreactivity”. “QVQLVESGGGLVHAGGSLRLSCAASGRTFNRYAMGWYRQAPGKERELVAAISGGGSSTSYADSVKGRFTISRDNAKNTVYLQMNSLKPEDTAVYYCAAKYGGLRYYNMYYWGQGTQVTVSS”: the “polyreactivity (PSR sort gate)” value was “low polyreactivity”. With “QVQLVESGGGLVQAGGSLRLTCAASGRTFSTYVMGWYRQAPGKEREFVAAISTGGGSTYYADSVKGRFTISRDNAKNTVYLQMNSLKPEDTAVYYCAAKRKIRGYGPYEFWGQGTQVTVSS” the entry was “high polyreactivity”; with “QVQLVESGGGLVQAGGSLRLSCAASGIIFDINAMGWYRQAPGKERELVAAITTSVDSTYYADSVKGRFTISRDTAKNTVYLQMNSLKPEDTAVYYCAVAFVQFTQYDYWGQGTQVTVSS”, “low polyreactivity”. The same measure for “QVQLVESGGGLVQAGGSLRLSCSASGFTFYRNAMGWYRQAPGKERELVASISRSGGSTYYADSVKGRFTISRDNAKNTVYLQMNSLKPEDTAVYYCAADLCWIYPHKYYYWGQGTQVTVSS”: “high polyreactivity”. With “QVQLVESGGGLVQAGGSLRLSCAASGITFFAYAMGWYRQAPGKERELVAAIWRGDNTYYADSVKGRFTISRDNAKNTVYLQMNSLKPEDTAVYYCAARYWSRRIFREGYWGQGTQVTVSS” the entry was “high polyreactivity”; with “QDQLVDSGGGLVQAGASLRISSATSGRILWEYAMGSYRQAPGKERQLVAAITISDGSTYYADSVKGRFTISRDNAKNTVYLQMNSLNPEDTEVYYCAADSYDYTPAYLFSYKYYYWGQGTQVTVSS”, “low polyreactivity”. With “QVQLVESGGGLVQAGGSLRLSCAASGSTFFSYAMGWYRQAPGKERELVAAITSNGGTTHYADSVKGRFTISRDNAKNTVYLQMNSLKPEDTADYYCAKAQGHVRGSRGLQGGRYDYWGQGTQVTVSS”, the “polyreactivity (PSR sort gate)” value was “low polyreactivity”. “QVQLVESWGGLVQAGGSLRLSCAASGRIIDRKAMGWYRQAPGKERELVAAISSSGSTNYADSVKGRFTFSRDNAKNTVYLQMISLKPEDTSVYYCAARWRSVLAAGTRPVSFDYWGQGTQVTVSS”: the “polyreactivity (PSR sort gate)” value is recorded as “low polyreactivity”. With “QVQLVESGGGLVQAGGSLRLSCAASGSTFQGYAMGWYRPAPGTERELVAAINYSGGSTYYADSVKGRFTISRDNAKNTVYVLMNSLKPEDTAVYYCAVKLRSRAGTSYGYWGQGTQVTVSS” the entry was “high polyreactivity”; with “QVQLVESGGGLVQAGGSLSLSCAASGRIFVRNSMGWYRQEPGKETELVADITNGGSTNYADSVKGRFTISRDNAKNTVYLQMNSQKPEDTAVYYCAADTLGVYDGDYWGQGTQVTVSS”, “low polyreactivity”; with “QVQLVESGGGLVQAGGSLRLSCAASGSISGSNDMGWYRQAPGKERELVAAISGGSSTNYADSVKGRFTISRDNAKNTVYFQMNSLKPEDTAVYYCAARYRWFFFYGPHSPGYNYWGQGTQVTVSS”, “high polyreactivity”. With “QVQLVESGGGLVQAGGSLRLSCAASGFTFYGNSMGWYRQATGKERELVAAITSGGSTYYADSVKGRFTISRDNAKNNVYLQMNSLKPEDTAVYYCAAVNGWRRVKRFDYWGQGTQVTVSS” the entry was “high polyreactivity”; with “QVQLVESGGGLVQAGGSLRLSCAGSGSTFRSNAMGWYRQAPGKERELVAAISRSGGRTYYADSVKGRFTISRDNAKNTVYLQMNSLKPEDTAVYYCNTVLKRQRKNEYWGQGTQVTVSS”, “high polyreactivity”; with “QVKLVESGGGLVQAGGSLRLSSAASGSTFDSNAMGWYRQEPGKERELVAAITRGGSTNYADSVKGRFTISRDNAKNTVYLQMNSLKPEDTAVYYCAAASETLGYATYGSGYDYWGQGTQVTVSS”, “low polyreactivity”.

Consider “QVQLVESGGGLVQAGGSLRLSCAASGITFDYNAMGWYRQAPGKERELVADISASGDSTYYADSVKGRFTISRDNAKNTVYLQMNSLKPEDTAVYYCNTAYWYSWGYDYWGQGTQVTVSS”, for which the “polyreactivity (PSR sort gate)” value is “low polyreactivity”.

Turning to “QVQHVDSGGCLVQAGGTLRLSCAASGFTLWAYAMGWYRQAPGKEREFVAVISRSDGSTYYADSVKGRFTISRENAKNTVYLQMNSLKPEDSAVYYCAAKHRGAKYDYWGQGTQVTVSS”, the “polyreactivity (PSR sort gate)” value was “low polyreactivity”.

For the sequence “QVQLVESGGGLVQAGGSLRLSCAASGSISGRYAMGWYRQAPGKERELVAAISWIGGSTYYADSVKGRFTISRDNAKNTVYLQMNSLKPEDTAVYYCNVTIDTRTHPLLVVFYGYDYWGQGTQVTVSS”, the “polyreactivity (PSR sort gate)” value is listed as “low polyreactivity”. “QVQLVESGGGLVQAGGSLRLSCAASGSIFDNYAMGCYRQAPRKERELVAAINFSDGDTYYGDSVKGRFTISRDNAKNTVYLQMNSLKPEDTAVYYCAAEVWYPPEYYDEYDYWGQGTQVTVSS”: the “polyreactivity (PSR sort gate)” value is on record as “low polyreactivity”.

Take “QVQLEDSGGGLVQAGGSLRLICAASGSILNYKAMGWYRHAPGKERELVAGIRSSGGSTYYADSVKGRFTISRDNAKNTVYLKMNSLKPEDTAVYDWAKRTYWRRGWGFDFWGQGTQVTVSS”: the “polyreactivity (PSR sort gate)” value was “high polyreactivity”. For the sequence “QVQLVESGGGLVQAGGSLRLSCAASGLTFVNYAMGWYRQAPGKERELVATISKTGGSTYYADSVKGRFTISRDNAKNTVYLQMNSLKPEDTAVYYCAVDAFYYKWYDYWGQGTQVTVSS”, the “polyreactivity (PSR sort gate)” value is recorded as “high polyreactivity”. The same measure for “QVQLVESGGGLVQAGGSLRLSCAASGSIFWYYDMGWYRQAPGKERELVATISRTGRTYYADSVKGRFTISRDNAKNTVYLQMNSLKPEDTAVYYCAAVPRGWFSYPSGYDYWGQGTQVTVSS”: “high polyreactivity”; for “QVQLVESGGGLVQAGGCLRLSCAASGSTFYVYDMGWYRQAPGKERELVAAMSKRRGTTYYADSVKGRFTISRDNAKNTVYLQMNSLKPEDTAVYYCAAVFRSPSAGYQGGYWGQGSQVTVSS”: “high polyreactivity”; for “QVQLVESGGGLVQAGASLRLSCAASGSTSYPYAMGWYRQAPWKEREFVAAITRSGGSTYYADSVKGRYTISRDNAKNTVYLQMNSLKPEDTAFYYCAARRYYFTDWYRRYDYWGQGTQVTVSS”: “high polyreactivity”. With “QVQLVESGGGLVQAGGSLRISCAASGRTFPGNAMGCYRQAPGKERELVAAISYSGGRTYYADSVKGRFTISRDNAKNTVYLQMNSLNPEDTAVYYCNRTPYSDYVFAYDYWGQGTQVTVSS” the entry was “high polyreactivity”; with “QVQLVESGGGLVQAGGSLRLSCAASGFTFNRYAMGWYRQAPGKERELVARITRGGSTKYADSVKGRFTISRDNAKNTVYLQMNSLKPEDTAVYYCAADYGGFLGYDYWGQGTQVTVSS”, “high polyreactivity”.

For “QVQLVESGGGLVQAGGSLRLSCAASGGIFGYYAMGWYRPAPGKERELVAAINYSGGSTYYADSVKGRFTISRDNAKNTVYLQMNSLKPEDTAVYYCNAVVRDYTFRYYYWGQGTQVTVSS”, the “polyreactivity (PSR sort gate)” value is listed as “low polyreactivity”. The same measure for “QVQLVESSGGLVQAGGSLRLSCADSGIIFQNYEMGWYRQAPGKDRELVAAITGSGGSTYYADSVKGRFTISRDNAKNTVYLQMNSLKPEDTAVDYCNADWEYYGKSDYWGQGTQVTVAS”: “low polyreactivity”; for “QVQLVESGGGLVQAGGSLRLSCAASGYIFRQNAMGWYRQAPGKERELVAAISRSDDNTFYADSVKGRFTISRDNAKNTVYLLMNSLKPEDTAVYYCAKYAVPWRYPRGYDYWGQGTQVTVSS”: “low polyreactivity”; for “QVQLVESGGGLVQAGGSLRLSCADSGRTFVSNAMGWYRQAPGKERELVAAISGSGGITYYADSVKGRFTISRDNAKNTVYLQMNSLKPEDTAVYYCNADSSGWFPFDYWGQGTQVTVSS”: “low polyreactivity”. The same measure for “QVQLVESGGGLVQAGGSLRLSCAASGNIFRSYMGWYRQAPGKEREFVAGITWRGGNTYYADSVKGRFTISRDNAKNTVYLQMNSLKPEDTAVYYCAAEIFVYYRWYDYWGQGTQVTVSS”: “high polyreactivity”; for “QDQHVESGGGVVQARGSLRLICDASGFTIQRSAMGWYRQAPGKERELVAAISSGGSTYYADSVKGRFTFSRDNAKNTVYLQMNSLKPEDTAVYYCAARPIPRYYGKFWRVDYWGQGTQVTVSS”: “high polyreactivity”; for “QVQLVESGGGLVQAGGSLRLSCAASGSTFSYYNMGLYIQATGKERELLAAINRRGDSTYADSVKWRFTISRDNAKNTVYLQMNSLKPEDTAVYDCAADASVGVSGMDYWGQGTQVTVSS”: “low polyreactivity”.

With “QVQLVESGGGLVQAGGSLRLSCAASGNTFGNYGMGWYRQAPGKEREFVAAITSRGTSSYYADSVKGRFTISRDNAKNTVYLQMNSLKPEDTAVYYCNARPRYKYPRYDYWGQGTQVTVSS”, the “polyreactivity (PSR sort gate)” value is given as “high polyreactivity”. With “QVQLVESGGGLVQAGGSLRLSCAASGRTLYRNAMGWYRQAPGKERELVAAISRSGGITYYADSVKGRFTISRDNAKNTVYLQMNSLKPEDTAVYYCAARYGRGVAPYGYWGQGTQVTVSS” the entry was “high polyreactivity”; with “QVQLVESGGGLVQAGGSLRLSCAASGFTFSWYAMGWYRQAPGKERELVAAINADGGTTYYADSVKGRFTISRDNAKNTVYLQMNRLKPEDTAVYYCAAELSVDKYDYWGQGTQVTVSS”, “low polyreactivity”; with “QVQLVESGGGLVQAGGSLRLSCAASGLIFRAYAMGWYRQAPGKERELVAAITRSGGRTYYADSVKGRFTISRDNAKNTVYLQMNSLTPEDTAVYYCAAEYGNTYSSYTYDYWGQGTQVTVSS”, “high polyreactivity”. The same measure for “QVQLVESGGGLVQAGGSLRLSCAASGITSEYNTMGWYRQAPGKERELVAGISYRGGSTYYADSVKGRFTISRDNAKNTVYLQMNSLKPEDTAVYYCAKSFKRWRYGNPDYYWGQGTQVTVSS”: “high polyreactivity”; for “QVQLVESGGGLVQAGGSLRLSCAASGIIFSVYAMGWYRQAPGKERELVAAITRSGSRTYYADSVKGRFTISRDNAKNTVYLQMNSLKPEDTAVYYCNAVPRVTRPSAVEEYDYWGQGTQVTVSS”: “high polyreactivity”.
